Laboratory results: the supplement of paper PMC11208486
± gives the uncertainty stated by the source.

Experiments:
[1] = specific initial activity, cyclohex-2-enone reduction (U mg-1); higher = more active
Experimental: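 Purified His-tagged ene reductases in 50 mM sodium phosphate pH 7.4 with 0-30% (v/v) organic co-solvent. Melting temperature was measured by the ThermoFMN assay (FMN fluorescence, 20-90 °C at 1 °C/min, inflection point, triplicate). Specific initial activity was measured with 10 mM cyclohex-2-enone and 0.2 mM NAD(P)H (NADH for LacER) as A340 depletion, at room temperature (DMSO, 2-propanol, n-propanol) or 25 °C (EtOH, MeOH), in triplicate. The TsOYE Tm is above the 90 °C measurement range.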

[2] = as above; settings: co-solvent: ethanol
Experimental: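 Specific initial activity of purified ene reductases with 10 mM cyclohex-2-enone and 0.2 mM NAD(P)H in 50 mM sodium phosphate pH 7.4 with 0-45% (v/v) ethanol or methanol, at set reaction temperatures of 25-45 °C. NAD(P)H depletion was followed at 340 nm for 480 s, in triplicate.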

“MSFVKDFKPQALGDTNLFKPIKIGNNELLHRAVIPPLTRMRALHPGNIPNRDWAVEYYTQRAQRPGTMIITEGAFISPQAGGYDNAPGVWSEEQMVEWTKIFNAIHEKKSFVWVQLWVLGWAAFPDNLARDGLRYDSASDNVFMDAEQEAKAKKANNPQHSLTKDEIKQYIKEYVQAAKNSIAAGADGVEIHSANGYLLNQFLDPHSNTRTDEYGGSIENRARFTLEVVDALVEAIGHEKVGLRLSPYGVFNSMSGGAETGIVAQYAYVAGELEKRAKAGKRLAFVHLVEPRVTNPFLTEGEGEYEGGSNDFVYSIWKGPVIRAGNFALHPEVVREEVKDKRTLIGYGRFFISNPDLVDRLEKGLPLNKYDRDTFYQMSAHGYIDYPTYEEALKLGWDKK” gave a specific initial activity ([1]; co-solvent: 2-propanol, co-solvent concentration (% v/v): 0) of 1.22 ± 0.04, a specific initial activity ([1]; co-solvent: 2-propanol, co-solvent concentration (% v/v): 5) of 1.54 ± 0.08 and a specific initial activity ([1]; co-solvent: 2-propanol, co-solvent concentration (% v/v): 10) of 1.7 ± 0.08. For the same sequence, the specific initial activity ([1]; co-solvent: 2-propanol, co-solvent concentration (% v/v): 15) was 1.86 ± 0.06, the specific initial activity ([1]; co-solvent: 2-propanol, co-solvent concentration (% v/v): 20) was 1.8 ± 0.1 and the specific initial activity ([1]; co-solvent: 2-propanol, co-solvent concentration (% v/v): 25) was 2 ± 0.09. The specific initial activity ([1]; co-solvent: 2-propanol, co-solvent concentration (% v/v): 30) was 2.05 ± 0.07, the specific initial activity ([1]; co-solvent: dimethyl sulfoxide, co-solvent concentration (% v/v): 0) was 1.31 ± 0.12 and the specific initial activity ([1]; co-solvent: dimethyl sulfoxide, co-solvent concentration (% v/v): 5) was 1.43 ± 0.16. It also gave a specific initial activity ([1]; co-solvent: dimethyl sulfoxide, co-solvent concentration (% v/v): 10) of 1.35 ± 0.05, a specific initial activity ([1]; co-solvent: dimethyl sulfoxide, co-solvent concentration (% v/v): 15) of 1.31 ± 0.14 and a specific initial activity ([1]; co-solvent: dimethyl sulfoxide, co-solvent concentration (% v/v): 20) of 1.38 ± 0.06. For the same sequence, the specific initial activity ([1]; co-solvent: dimethyl sulfoxide, co-solvent concentration (% v/v): 25) was 1.32 ± 0.13, the specific initial activity ([1]; co-solvent: dimethyl sulfoxide, co-solvent concentration (% v/v): 30) was 1.32 ± 0.08 and the specific initial activity ([1]; co-solvent: ethanol, co-solvent concentration (% v/v): 0) was 1.49 ± 0.06. It also gave a specific initial activity ([1]; co-solvent: ethanol, co-solvent concentration (% v/v): 5) of 1.58 ± 0.11, a specific initial activity ([1]; co-solvent: ethanol, co-solvent concentration (% v/v): 10) of 1.78 ± 0.1 and a specific initial activity ([1]; co-solvent: ethanol, co-solvent concentration (% v/v): 15) of 1.97 ± 0.14. For the same sequence, the specific initial activity ([1]; co-solvent: ethanol, co-solvent concentration (% v/v): 20) was 2 ± 0.17, the specific initial activity ([1]; co-solvent: ethanol, co-solvent concentration (% v/v): 25) was 2.1 ± 0.04 and the specific initial activity ([1]; co-solvent: ethanol, co-solvent concentration (% v/v): 30) was 2.46 ± 0.11. The specific initial activity ([1]; co-solvent: methanol, co-solvent concentration (% v/v): 0) was 1.55 ± 0.06, the specific initial activity ([1]; co-solvent: methanol, co-solvent concentration (% v/v): 5) was 1.72 ± 0.05 and the specific initial activity ([1]; co-solvent: methanol, co-solvent concentration (% v/v): 10) was 1.81 ± 0.07. For the same sequence, the specific initial activity ([1]; co-solvent: methanol, co-solvent concentration (% v/v): 15) was 2.07 ± 0.07, the specific initial activity ([1]; co-solvent: methanol, co-solvent concentration (% v/v): 20) was 2.23 ± 0.15 and the specific initial activity ([1]; co-solvent: methanol, co-solvent concentration (% v/v): 25) was 2.42 ± 0.11. For the same sequence, the specific initial activity ([1]; co-solvent: methanol, co-solvent concentration (% v/v): 30) was 2.58 ± 0.11, the specific initial activity ([1]; co-solvent: n-propanol, co-solvent concentration (% v/v): 0) was 1.3 ± 0.03 and the specific initial activity ([1]; co-solvent: n-propanol, co-solvent concentration (% v/v): 5) was 1.59 ± 0.06. For the same sequence, the specific initial activity ([1]; co-solvent: n-propanol, co-solvent concentration (% v/v): 10) was 1.83 ± 0.2, the specific initial activity ([1]; co-solvent: n-propanol, co-solvent concentration (% v/v): 15) was 1.81 ± 0.18 and the specific initial activity ([1]; co-solvent: n-propanol, co-solvent concentration (% v/v): 20) was 1.86 ± 0.15. It also gave a specific initial activity ([1]; co-solvent: n-propanol, co-solvent concentration (% v/v): 25) of 1.84 ± 0.13, a specific initial activity ([1]; co-solvent: n-propanol, co-solvent concentration (% v/v): 30) of 1.96 ± 0.14 and a specific initial activity ([2]; co-solvent concentration (% v/v): 0, reaction temperature 25 °C) of 0.2 ± 0.02. The specific initial activity ([2]; co-solvent concentration (% v/v): 0, reaction temperature 30 °C) was 0.23 ± 0.03, the specific initial activity ([2]; co-solvent concentration (% v/v): 0, reaction temperature 35 °C) was 0.36 ± 0.02 and the specific initial activity ([2]; co-solvent concentration (% v/v): 0, reaction temperature 40 °C) was 0.33 ± 0.18. For the same sequence, the specific initial activity ([2]; co-solvent concentration (% v/v): 0, reaction temperature 45 °C) was 0.1 ± 0.12, the specific initial activity ([2]; co-solvent concentration (% v/v): 5, reaction temperature 25 °C) was 0.28 ± 0.05 and the specific initial activity ([2]; co-solvent concentration (% v/v): 5, reaction temperature 30 °C) was 0.32 ± 0.02. The specific initial activity ([2]; co-solvent concentration (% v/v): 5, reaction temperature 35 °C) was 0.47 ± 0.02, the specific initial activity ([2]; co-solvent concentration (% v/v): 5, reaction temperature 40 °C) was 0.34 ± 0.08 and the specific initial activity ([2]; co-solvent concentration (% v/v): 5, reaction temperature 45 °C) was 0.17 ± 0.1. For the same sequence, the specific initial activity ([2]; co-solvent concentration (% v/v): 10, reaction temperature 25 °C) was 0.27 ± 0.02, the specific initial activity ([2]; co-solvent concentration (% v/v): 10, reaction temperature 30 °C) was 0.37 ± 0.02 and the specific initial activity ([2]; co-solvent concentration (% v/v): 10, reaction temperature 35 °C) was 0.52 ± 0.03. It also gave a specific initial activity ([2]; co-solvent concentration (% v/v): 10, reaction temperature 40 °C) of 0.21 ± 0.12, a specific initial activity ([2]; co-solvent concentration (% v/v): 10, reaction temperature 45 °C) of 0.12 ± 0.08 and a specific initial activity ([2]; co-solvent concentration (% v/v): 15, reaction temperature 25 °C) of 0.32 ± 0.02. For the same sequence, the specific initial activity ([2]; co-solvent concentration (% v/v): 15, reaction temperature 30 °C) was 0.36 ± 0.01, the specific initial activity ([2]; co-solvent concentration (% v/v): 15, reaction temperature 35 °C) was 0.52 ± 0.05 and the specific initial activity ([2]; co-solvent concentration (% v/v): 15, reaction temperature 40 °C) was 0.09 ± 0.05. For the same sequence, the specific initial activity ([2]; co-solvent concentration (% v/v): 15, reaction temperature 45 °C) was 0.05, the specific initial activity ([2]; co-solvent concentration (% v/v): 20, reaction temperature 25 °C) was 0.36 ± 0.02 and the specific initial activity ([2]; co-solvent concentration (% v/v): 20, reaction temperature 30 °C) was 0.35 ± 0.02. For the same sequence, the specific initial activity ([2]; co-solvent concentration (% v/v): 20, reaction temperature 35 °C) was 0.32 ± 0.09, the specific initial activity ([2]; co-solvent concentration (% v/v): 20, reaction temperature 40 °C) was 0.02 and the specific initial activity ([2]; co-solvent concentration (% v/v): 20, reaction temperature 45 °C) was 0.02 ± 0.03. It also gave a specific initial activity ([2]; co-solvent concentration (% v/v): 25, reaction temperature 25 °C) of 0.27 ± 0.03, a specific initial activity ([2]; co-solvent concentration (% v/v): 25, reaction temperature 30 °C) of 0.21 ± 0.02 and a specific initial activity ([2]; co-solvent concentration (% v/v): 25, reaction temperature 35 °C) of 0.03 ± 0.02. The specific initial activity ([2]; co-solvent concentration (% v/v): 25, reaction temperature 40 °C) was 0.01 ± 0.01, the specific initial activity ([2]; co-solvent concentration (% v/v): 25, reaction temperature 45 °C) was 0.01 ± 0.01 and the specific initial activity ([2]; co-solvent concentration (% v/v): 30, reaction temperature 25 °C) was 0.15 ± 0.05. For the same sequence, the specific initial activity ([2]; co-solvent concentration (% v/v): 30, reaction temperature 30 °C) was 0.15 ± 0.06.
